# Measured values published in PMC3253551 (Nature structural & molecular biology, 2011).
# T1: 15N-13C-2D triply labeled MPER 27mer (HIV-1 (HxB2))
# T1 chain: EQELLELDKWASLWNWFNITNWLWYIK
# T2: full-length MPER segment (peptide containing the C-helical MPER region) (HIV-1 HXB2, UniProt P04578)
# T2 chain: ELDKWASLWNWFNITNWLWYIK
# T3: MPER peptide QQEKNEQELLELDKWASLWNWFNI (binding analysis in membrane environment) (HIV-1 HXB2)
# T3 chain: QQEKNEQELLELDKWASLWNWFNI
# Columns and labels:
# [1] = target: T1, 15N-13C-2D triply labeled MPER 27mer; assay: NMR chemical shift perturbation and cross-saturation transfer
# [2] = target: T2, full-length MPER segment (peptide …); assay: SPR
# [3] = target: wt MPER peptide of the alanine scan (HIV-1 HXB2, UniProt P04578); assay: SPR
# [4] = target: T3, MPER peptide QQEKNEQELLELDKWASLWNWFNI …; assay: SPR
# [5] = target: trimeric ADA strain HIV-1 envelope protein GP160 (HIV-1 subtype B, isolate ADA, UniProt Q6TAN8, strain); assay: flow cytometry on cells
Binder,binding result [1],binding result [2],binding result [3],Kd [4],% of cells stained [5]
"2F5 Fab, wild type (Fab, V domains shown) VH: RITLKESGPPLVKPTQTLTLTCSFSGFSLSDFGVGVGWIRQPPGKALEWLAIIYSDDDKRYSPSLNTRLTITKDTSKNQVVLVMTRVSPVDTATYFCAHRRGPTTLFGVPIARGPVNAMDVWGQGITVTISS VL: ALQLTQSPSSLSASVGDRITITCRASQGVTSALAWYRQKPGSPPQLLIYDASSLESGVPSRFSGSGSGTEFTLTISTLRPEDFATYYCQQLHFYPHTFGGGTRVDVR",binds,,,,
"2F5m I100FS monoclonal antibody (antibody, V domains shown) VH: RITLKESGPPLVKPTQTLTLTCSFSGFSLSDFGVGVGWIRQPPGKALEWLAIIYSDDDKRYSPSLNTRLTITKDTSKNQVVLVMTRVSPVDTATYFCAHRRGPTTLFGVPSARGPVNAMDVWGQGITVTISS VL: ALQLTQSPSSLSASVGDRITITCRASQGVTSALAWYRQKPGSPPQLLIYDASSLESGVPSRFSGSGSGTEFTLTISTLRPEDFATYYCQQLHFYPHTFGGGTRVDVR",,binds,binds,28 nM,20 % of cells stained
"2F5m L100AS F100BS monoclonal antibody (antibody, V domains shown) VH: RITLKESGPPLVKPTQTLTLTCSFSGFSLSDFGVGVGWIRQPPGKALEWLAIIYSDDDKRYSPSLNTRLTITKDTSKNQVVLVMTRVSPVDTATYFCAHRRGPTTSSGVPIARGPVNAMDVWGQGITVTISS VL: ALQLTQSPSSLSASVGDRITITCRASQGVTSALAWYRQKPGSPPQLLIYDASSLESGVPSRFSGSGSGTEFTLTISTLRPEDFATYYCQQLHFYPHTFGGGTRVDVR",,binds,,476 nM,3.9 % of cells stained
"2F5 broadly neutralizing monoclonal antibody, wild type (antibody, V domains shown) VH: RITLKESGPPLVKPTQTLTLTCSFSGFSLSDFGVGVGWIRQPPGKALEWLAIIYSDDDKRYSPSLNTRLTITKDTSKNQVVLVMTRVSPVDTATYFCAHRRGPTTLFGVPIARGPVNAMDVWGQGITVTISS VL: ALQLTQSPSSLSASVGDRITITCRASQGVTSALAWYRQKPGSPPQLLIYDASSLESGVPSRFSGSGSGTEFTLTISTLRPEDFATYYCQQLHFYPHTFGGGTRVDVR",,binds,binds,3.1 nM,36 % of cells stained
"2F5m F100BS monoclonal antibody (antibody, V domains shown) VH: RITLKESGPPLVKPTQTLTLTCSFSGFSLSDFGVGVGWIRQPPGKALEWLAIIYSDDDKRYSPSLNTRLTITKDTSKNQVVLVMTRVSPVDTATYFCAHRRGPTTLSGVPIARGPVNAMDVWGQGITVTISS VL: ALQLTQSPSSLSASVGDRITITCRASQGVTSALAWYRQKPGSPPQLLIYDASSLESGVPSRFSGSGSGTEFTLTISTLRPEDFATYYCQQLHFYPHTFGGGTRVDVR",,binds,binds,97 nM,12 % of cells stained
